Among the data in article PMC6117352, “Multidomain architecture of estrogen receptor reveals interfacial cross-talk between its DNA-binding and ligand-binding domains” (Nature Communications, 2018) are binding result and Kd values, retold here.

Data set [1] concerns the molecule itself. The data set can be described thus: SEC-SAXS + hydroxyl radical protein footprinting, docked models scored against both data sets; hERα^CDE eluted from Superdex 200 with E2, ERE–DNA and TIF2 peptide; 10 mM CHES pH 9.5, 50 mM NaCl, 50 mM KCl; footprinting at 2 µM protein, pH 9.5.
For data set [2], the target named is hERαCDE W393A (Homo sapiens, UniProt P03372 181-552, W393A). The data set can be described thus: fluorescence anisotropy; E2, TIF2 coactivator peptide; 20 nM DNA; FA: 10 mM CHES pH 9.5, 50 mM KCl, 50 mM NaCl, 4 mM MgCl2, 50 mM arginine, 50 mM glutamic acid, 5 mM TCEP, 5% glycerol, 10 uM ZnCl2, 10 uM E2; 20 nM DNA, 10 min; temperature not stated. The settings on record: protein: recombinant; tags: His-tag (pMCSG7), removed by TEV; chain copies: 2; label: 5' 6-FAM (strands described as 5'-labeled); blunt, 19 bp as printed (text says 18-bp). In general terms: Polarisation of emitted light reports the rotation of a fluorescent probe.
Sequence of hERαCDE W393A (P03372 181-552 W393A): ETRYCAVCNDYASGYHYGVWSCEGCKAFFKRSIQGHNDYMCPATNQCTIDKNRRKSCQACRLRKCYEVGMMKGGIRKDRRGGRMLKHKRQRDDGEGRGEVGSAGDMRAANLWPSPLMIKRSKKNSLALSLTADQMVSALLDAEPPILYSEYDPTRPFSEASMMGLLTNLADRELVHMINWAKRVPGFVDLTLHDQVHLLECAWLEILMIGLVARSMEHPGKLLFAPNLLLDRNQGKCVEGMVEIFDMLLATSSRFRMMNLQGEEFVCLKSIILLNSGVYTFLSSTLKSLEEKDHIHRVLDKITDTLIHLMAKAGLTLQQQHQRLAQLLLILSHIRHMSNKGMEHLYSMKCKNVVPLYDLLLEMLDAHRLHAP

For data set [3], the target named is hERαCDE Y191H (Homo sapiens, UniProt P03372 181-552, Y191H). The data set is described as above. The note with it: protein: recombinant; tags: His-tag (pMCSG7), removed by TEV; chain copies: 2; label: 5' 6-FAM (strands described as 5'-labeled); blunt, 19 bp as printed (text says 18-bp).
Data set [4] addresses hERαCDE WT (Homo sapiens, UniProt P03372 181-552). Description: fluorescence anisotropy; E2, TIF2 coactivator peptide; 20 nM DNA; apparent Kd; FA: 10 mM CHES pH 9.5, 50 mM KCl, 50 mM NaCl, 4 mM MgCl2, 50 mM arginine, 50 mM glutamic acid, 5 mM TCEP, 5% glycerol, 10 uM ZnCl2, 10 uM E2; 20 nM DNA, 10 min; temperature not stated. The note with it: protein: recombinant; tags: His-tag (pMCSG7), removed by TEV; chain copies: 2; label: 5' 6-FAM (strands described as 5'-labeled); blunt, 19 bp as printed (text says 18-bp).

B1: human estrogen receptor alpha multidomain segment containing both DBD and LBD (residues E181–P552), hERα^CDE (domain or fragment, UniProt P03372 181-552, looked up)
chain: ETRYCAVCNDYASGYHYGVWSCEGCKAFFKRSIQGHNDYMCPATNQCTIDKNRRKSCQACRLRKCYEVGMMKGGIRKDRRGGRMLKHKRQRDDGEGRGEVGSAGDMRAANLWPSPLMIKRSKKNSLALSLTADQMVSALLDAEPPILYSEYDPTRPFSEASMMGLLTNLADRELVHMINWAKRVPGFVDLTLHDQVHLLECAWLEILMIGLVWRSMEHPGKLLFAPNLLLDRNQGKCVEGMVEIFDMLLATSSRFRMMNLQGEEFVCLKSIILLNSGVYTFLSSTLKSLEEKDHIHRVLDKITDTLIHLMAKAGLTLQQQHQRLAQLLLILSHIRHMSNKGMEHLYSMKCKNVVPLYDLLLEMLDAHRLHAP
notes: Cloned into pMCSG7 and the His-tag removed with TEV protease; In the assays it carried estradiol (E2) and ERE-DNA; also called hERα^CDE–DNA-E2 complex; protein part of hERα^complex; source: E. coli Rosetta2(DE3)pLysS, expressed in the presence of estradiol, purified (TALON resin, TEV cleavage, Superdex 200)
Turning to B1, the binding result in data set [1] is reported as “binds”.

B2: 6-FAM ERE-DNA (dsDNA)
DNA 1: TAGGTCACAGTGACCTGCG
DNA 2: CGCAGGTCACTGTGACCTA
With B2, the figures for the Kd in data set [2], in data set [3] and in data set [4] were 10.8 nM, 3.2 nM and 9.2 nM, respectively.
